Among the data in PMC3764826, “Bpur, the Lyme Disease Spirochete's PUR Domain Protein” are binding result and Kd values, retold here.

Data set [1] addresses T1, Bpur (Borrelia burgdorferi B31, UniProt O51076 1-122).
T1 sequence: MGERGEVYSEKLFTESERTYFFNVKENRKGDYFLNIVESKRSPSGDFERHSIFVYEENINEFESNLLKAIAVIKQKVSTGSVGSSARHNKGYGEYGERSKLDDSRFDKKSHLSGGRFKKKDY
As to the kind of experiment: EMSA; simultaneous with Bio-3; EMSA: 50 mM Tris pH 7.5, 25 mM KCl, 1 mM MgCl2, 100 nM DTT, 10% glycerol, 0.01% Tween 20, 0.1% PMSF; temperature not stated; RNA/ssDNA probes preheated at 56 C, RiboGuard with RNA. As to conditions: protein: recombinant; tags: His tag (pET101, nickel purification); chain copies: 2; label: 5' biotin. A general note: Mobility shift assays separate free from complexed probe on a gel.

In data set [2] the target is T1, Bpur. The experiment in a line: EMSA; EMSA: 50 mM Tris pH 7.5, 25 mM KCl, 1 mM MgCl2, 100 nM DTT, 10% glycerol, 0.01% Tween 20, 0.1% PMSF; temperature not stated; RNA/ssDNA probes preheated at 56 C, RiboGuard with RNA. As to conditions: protein: recombinant, tags: His tag (pET101, nickel purification), chain copies: 2.
Data set [3] concerns the target T1, Bpur. As to the kind of experiment: competition; 100-fold excess vs Bio-1; EMSA: 50 mM Tris pH 7.5, 25 mM KCl, 1 mM MgCl2, 100 nM DTT, 10% glycerol, 0.01% Tween 20, 0.1% PMSF; temperature not stated; RNA/ssDNA probes preheated at 56 C, RiboGuard with RNA. As to conditions: protein: recombinant; tags: His tag (pET101, nickel purification); chain copies: 2.
The target of data set [4] is T1, Bpur. As to the kind of experiment: EMSA; simultaneous with Bio-2; EMSA: 50 mM Tris pH 7.5, 25 mM KCl, 1 mM MgCl2, 100 nM DTT, 10% glycerol, 0.01% Tween 20, 0.1% PMSF; temperature not stated; RNA/ssDNA probes preheated at 56 C, RiboGuard with RNA. Conditions: protein: recombinant; tags: His tag (pET101, nickel purification); chain copies: 2; label: 5' biotin.
Data set [5] deals with T1, Bpur. The experiment in a line: EMSA; 50-500 nM Bpur; EMSA: 50 mM Tris pH 7.5, 25 mM KCl, 1 mM MgCl2, 100 nM DTT, 10% glycerol, 0.01% Tween 20, 0.1% PMSF; temperature not stated; RNA/ssDNA probes preheated at 56 C, RiboGuard with RNA. As to conditions: protein: recombinant; tags: His tag (pET101, nickel purification); chain copies: 2; label: 5' biotin.

B1: Bio-2 (dsDNA)
DNA 1: TAAAATTACATTTGCGTTTTGTTAAAATGTAACAGCTGAATGTAAC
DNA 2: GTTACATTCAGCTGTTACATTTTAACAAAACGCAAATGTAATTTTA
Consider B1, for which the binding result in data set [1] is “no binding”.

B2: Bio-sense-RNA (ssRNA)
RNA: AAUGGAGAGAUUUUGGGGAGUUGUUUAAAAUUACAUUUGCGUUUUGUUAAAAUG
As to B2, in data set [2] (label: 5' biotin), the dissociation constant Kd was 13 nM.

B3: competitor C (dsDNA)
DNA 1: GTAGTGCATTTGCAATGGAGAGATTTTGGGGAGTTGTTTAAAATTAC
DNA 2: GTAATTTTAAACAACTCCCCAAAATCTCTCCATTGCAAATGCACTAC
Turning to B3, the binding result in data set [3] is listed as “binds”.

B4: Bio-3 (dsDNA)
DNA 1: GGAGAGATTTTGGGGAGTTGTTTAAAATTACATTTGCGTTTTGTTAAAATGTAAC
DNA 2: GTTACATTTTAACAAAACGCAAATGTAATTTTAAACAACTCCCCAAAATCTCTCC
B4: in data set [4], the binding result is listed as “binds”.

B5: Bio-dsDNA (dsDNA)
DNA 1: AATGGAGAGATTTTGGGGAGTTGTTTAAAATTACATTTGCGTTTTGTTAAAATG
DNA 2: CATTTTAACAAAACGCAAATGTAATTTTAAACAACTCCCCAAAATCTCTCCATT
For B5, the Kd in data set [2] (label: 5' biotin (one strand), blunt) came to 130 nM.

B6: Bio-sense-ssDNA (ssDNA)
DNA: AATGGAGAGATTTTGGGGAGTTGTTTAAAATTACATTTGCGTTTTGTTAAAATG
For B6, the Kd in data set [2] (label: 5' biotin) is 390 nM.

B7: Bio-1 (dsDNA)
DNA 1: GAGTAGTGCATTTGCAATGGAGAGATTTTGGGGAGTTGTTTAAAATTACATTTGCGTTTTGTTAAAATGTAACAGCTGAATGTAACAAAATTATATATTTAAATCTTGAAATA
DNA 2: TATTTCAAGATTTAAATATATAATTTTGTTACATTCAGCTGTTACATTTTAACAAAACGCAAATGTAATTTTAAACAACTCCCCAAAATCTCTCCATTGCAAATGCACTACTC
B7: the binding result in data set [5] is on record as “binds”.

As usually defined, the Kd is the equilibrium constant for the complex coming apart.
